The values below are quoted from earlier work in publication PMC5113071.

The target in data set [1] is NRP1 (Homo sapiens) (UniProt O14786).
In data set [2] the target is alpha-2-macroglobulin fast form (Homo sapiens) (UniProt P01023).
The target in data set [3] is VEGFR2 (Homo sapiens) (UniProt P35968).
For data set [4], the target named is VEGFR1 (Homo sapiens) (UniProt P17948).
The target in data set [5] is alpha-2-macroglobulin (Homo sapiens) (UniProt P01023).
In data set [6] the target is NRP1 (Homo sapiens) (UniProt O14786). This is another data set of the same source.

Where two headings read alike, the source gives them in different places.

UniProt P35968, sequence (P35968 20-1356): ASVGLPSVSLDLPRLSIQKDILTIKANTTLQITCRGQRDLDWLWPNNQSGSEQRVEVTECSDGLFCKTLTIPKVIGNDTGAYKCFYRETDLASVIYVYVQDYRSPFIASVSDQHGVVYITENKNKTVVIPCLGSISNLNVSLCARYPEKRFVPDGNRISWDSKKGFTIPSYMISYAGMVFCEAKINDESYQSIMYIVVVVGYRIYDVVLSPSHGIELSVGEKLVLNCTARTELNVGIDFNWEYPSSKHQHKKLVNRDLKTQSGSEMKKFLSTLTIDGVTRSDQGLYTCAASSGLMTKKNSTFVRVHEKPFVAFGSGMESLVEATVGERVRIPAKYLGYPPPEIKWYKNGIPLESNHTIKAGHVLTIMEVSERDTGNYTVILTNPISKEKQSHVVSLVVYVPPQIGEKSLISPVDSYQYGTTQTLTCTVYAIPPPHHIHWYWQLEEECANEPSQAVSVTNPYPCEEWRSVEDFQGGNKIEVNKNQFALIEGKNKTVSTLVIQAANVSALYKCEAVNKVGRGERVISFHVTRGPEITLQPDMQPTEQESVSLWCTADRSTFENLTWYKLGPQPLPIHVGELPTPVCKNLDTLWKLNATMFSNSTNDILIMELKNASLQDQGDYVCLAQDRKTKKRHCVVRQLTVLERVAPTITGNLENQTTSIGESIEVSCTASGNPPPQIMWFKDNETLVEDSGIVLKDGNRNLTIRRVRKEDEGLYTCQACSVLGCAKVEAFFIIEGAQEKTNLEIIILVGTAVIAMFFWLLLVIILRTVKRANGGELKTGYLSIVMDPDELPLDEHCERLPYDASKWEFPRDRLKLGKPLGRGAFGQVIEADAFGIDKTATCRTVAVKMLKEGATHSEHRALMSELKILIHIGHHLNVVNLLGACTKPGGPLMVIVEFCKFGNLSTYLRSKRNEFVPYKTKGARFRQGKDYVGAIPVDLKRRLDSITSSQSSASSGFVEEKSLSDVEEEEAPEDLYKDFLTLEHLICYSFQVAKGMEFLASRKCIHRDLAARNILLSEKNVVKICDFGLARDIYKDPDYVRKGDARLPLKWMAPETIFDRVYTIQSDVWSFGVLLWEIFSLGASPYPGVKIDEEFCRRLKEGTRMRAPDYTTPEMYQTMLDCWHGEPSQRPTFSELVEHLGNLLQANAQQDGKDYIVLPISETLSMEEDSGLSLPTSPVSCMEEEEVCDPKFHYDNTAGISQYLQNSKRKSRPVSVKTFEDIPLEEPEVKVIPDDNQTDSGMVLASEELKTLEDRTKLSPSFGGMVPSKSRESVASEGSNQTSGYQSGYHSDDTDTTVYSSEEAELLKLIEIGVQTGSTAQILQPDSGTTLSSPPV

For “VEGF165a and VEGF121 (from UniProt P15692)”, the Kd in data set [1] is 0.312 nM.

Consider “VEGF165a, VEGF165b and VEGF121 (from UniProt P15692)”, for which the Kd is 420 nM in data set [2], 0.1 nM in data set [3], 0.033 nM in data set [4] and 4000 nM in data set [5].

Consider sVEGFR1 (from UniProt P17948), for which the Kd in data set [6] was 1.8 nM.

As usually defined, the Kd is the concentration at which binding is half-saturated.
